This note sets out measurements from patent US20180057604A1 (Genentech, published 2018).

Where a chain is given by its changes, count along the chain named. Numbers in names are those of the source.

T1: cyno TfR extracellular domain (analogous construct to human TfR ecd) (cynomolgus monkey, UniProt Q5RDH6 87-760 (Pongo abelii entry))
T1 construct: also called cynoTfR ecd
T1 chain: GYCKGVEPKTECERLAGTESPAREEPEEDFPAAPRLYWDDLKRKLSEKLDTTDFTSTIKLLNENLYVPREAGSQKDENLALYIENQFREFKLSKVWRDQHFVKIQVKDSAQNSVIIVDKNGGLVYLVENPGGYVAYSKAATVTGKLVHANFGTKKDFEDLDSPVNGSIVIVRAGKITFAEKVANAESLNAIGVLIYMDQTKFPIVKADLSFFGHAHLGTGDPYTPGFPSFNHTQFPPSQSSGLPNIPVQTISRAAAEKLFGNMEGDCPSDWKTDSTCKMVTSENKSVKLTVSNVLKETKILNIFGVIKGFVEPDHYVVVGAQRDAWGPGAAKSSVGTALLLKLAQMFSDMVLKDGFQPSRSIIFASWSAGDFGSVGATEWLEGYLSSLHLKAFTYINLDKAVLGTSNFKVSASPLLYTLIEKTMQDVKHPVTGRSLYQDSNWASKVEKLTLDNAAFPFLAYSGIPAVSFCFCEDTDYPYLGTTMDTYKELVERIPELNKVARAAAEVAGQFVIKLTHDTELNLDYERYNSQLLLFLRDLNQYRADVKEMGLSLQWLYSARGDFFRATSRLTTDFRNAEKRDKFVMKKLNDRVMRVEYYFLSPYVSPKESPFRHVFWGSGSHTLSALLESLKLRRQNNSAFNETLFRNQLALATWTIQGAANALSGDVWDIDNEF

B1: 5643 (antibody, V domains shown)
VH: QLQLQESGPGLVKPSETLSLTCTVSGGSISSSSYYWGWIRQPPGKGLEWIGSIYYSGSTYYNPSLKSRVTISVDTSKNQFSLKLSSVTAADTAVYYCARVGHGISYFDLWGRGTLVTVSS
VL: EIVLTQSPATLSLSPGERATLSCRASQSVSSYLAWYQQKPGQAPRLLIYDASNRATGIPARFSGSGSGTDFTLTISSLEPEDFAVYYCQQSLTWPPRTFGGGTKVEIK
B2: hu15G11.v5 IgG Ala variant D27A (HVR-L1) (antibody, V domains shown)
VH: EVQLVQSGAEVKKPGASVKVSCKASGYTFTSYWMHWVRQAPGQRLEWIGEINPTNGRTNYIEKFKSRATLTVDKSASTAYMELSSLRSEDTAVYYCARGTRAYHYWGQGTMVTVSS
VL: DIQMTQSPSSLSASVGDRVTITCRASANLYSNLAWYQQKPGKSPKLLVYDATNLADGVPSRFSGSGSGTDYTLTISSLQPEDFATYYCQHFWGTPLTFGQGTKVEIK
notes: IgG in cell culture supernatant
B3: hu15G11.v5 IgG Ala variant N53A (HVR-L2) (antibody, V domains shown)
VH: B2 VH
VL: B2 VL with A27D, N53A
notes: as for B2
B4: hu15G11.v5 IgG Ala variant K64A (HVR-H2) (antibody, name in Kabat numbering, V domains shown)
VH: B2 VH with K65A
VL: B2 VL with A27D
notes: IgG in cell culture supernatant; Kabat numbers after 52a lie one below the linear count
B5: hu15G11.v5 IgG Ala variant R56A (HVR-H2) (antibody, name in Kabat numbering, V domains shown)
VH: B2 VH with R57A
VL: B2 VL with A27D
notes: as for B4
B6: hu15G11.v5 IgG Ala variant I51A (HVR-H2) (antibody, name in Kabat numbering, V domains shown)
VH: B2 VH with I51A
VL: B2 VL with A27D
notes: as for B2
B7: hu15G11.v5 IgG Ala variant D56A (HVR-L2) (antibody, V domains shown)
VH: B2 VH
VL: B2 VL with A27D, D56A
notes: as for B2
B8: hu15G11.v5 IgG Ala variant S31A (HVR-H1) (antibody, name in Kabat numbering, V domains shown)
VH: B2 VH with S31A
VL: B2 VL with A27D
notes: IgG in cell culture supernatant; also called S31A (heavy chain)
B9: hu15G11.v5 IgG Ala variant F63A (HVR-H2) (antibody, name in Kabat numbering, V domains shown)
VH: B2 VH with F64A
VL: B2 VL with A27D
notes: as for B4
B10: hu15G11.v5 IgG Ala variant E50A (HVR-H2) (antibody, name in Kabat numbering, V domains shown)
VH: B2 VH with E50A
VL: B2 VL with A27D
notes: as for B2
B11: hu15G11.v5 IgG Ala variant G49A (HVR-H2) (antibody, name in Kabat numbering, V domains shown)
VH: B2 VH with G49A
VL: B2 VL with A27D
notes: as for B2
B12: hu15G11.v5 IgG Ala variant E61A (HVR-H2) (antibody, name in Kabat numbering, V domains shown)
VH: B2 VH with E62A
VL: B2 VL with A27D
notes: as for B4
B13: hu15G11.v5 IgG Ala variant S26A (HVR-L1) (antibody, V domains shown)
VH: B2 VH
VL: B2 VL with S26A, A27D
notes: as for B2
B14: hu15G11.v5 IgG Ala variant T30A (HVR-H1) (antibody, name in Kabat numbering, V domains shown)
VH: B2 VH with T30A
VL: B2 VL with A27D
notes: as for B2
B15: hu15G11.v5 IgG Ala variant N28A (HVR-L1) (antibody, V domains shown)
VH: B2 VH
VL: B2 VL with A27D, N28A
notes: as for B2
B16: hu15G11.v5 IgG Ala variant P52aA (HVR-H2) (antibody, name in Kabat numbering, V domains shown)
VH: B2 VH with P53A
VL: B2 VL with A27D
notes: as for B2
B17: hu15G11.v5 IgG Ala variant L54A (HVR-L2) (antibody, V domains shown)
VH: B2 VH
VL: B2 VL with A27D, L54A
notes: as for B2
B18: hu15G11.v5 IgG Ala variant S65A (HVR-H2) (antibody, name in Kabat numbering, V domains shown)
VH: B2 VH with S66A
VL: B2 VL with A27D
notes: as for B4
B19: hu15G11.v5 IgG Ala variant L33A (HVR-L1) (antibody, V domains shown)
VH: B2 VH
VL: B2 VL with A27D, L33A
notes: as for B2
B20: hu15G11.v5 IgG Ala variant L29A (HVR-L1) (antibody, V domains shown)
VH: B2 VH
VL: B2 VL with A27D, L29A
notes: as for B2
B21: hu15G11.v5 IgG Ala variant R24A (HVR-L1) (antibody, V domains shown)
VH: B2 VH
VL: B2 VL with R24A, A27D
notes: as for B2
B22: hu15G11.v5 IgG Ala variant D50A (HVR-L2) (antibody, V domains shown)
VH: B2 VH
VL: B2 VL with A27D, D50A
notes: as for B2
B23: hu15G11.v5 IgG Ala variant M34A (HVR-H1) (antibody, name in Kabat numbering, V domains shown)
VH: B2 VH with M34A
VL: B2 VL with A27D
notes: as for B2
B24: hu15G11.v5 IgG Ala variant N52A (HVR-H2) (antibody, V domains shown)
VH: B2 VH with N52A
VL: B2 VL with A27D
notes: IgG in cell culture supernatant; also called 15G11.N52A; 15G11.52A
B25: hu15G11.v5 IgG Ala variant K62A (HVR-H2) (antibody, name in Kabat numbering, V domains shown)
VH: B2 VH with K63A
VL: B2 VL with A27D
notes: as for B4
B26: hu15G11.v5 IgG Ala variant N32A (HVR-L1) (antibody, V domains shown)
VH: B2 VH
VL: B2 VL with A27D, N32A
notes: as for B2
B27: hu15G11.v5 IgG Ala variant T28A (HVR-H1) (antibody, name in Kabat numbering, V domains shown)
VH: B2 VH with T28A
VL: B2 VL with A27D
notes: as for B2
B28: hu15G11.v5 IgG Ala variant S31A (HVR-L1) (antibody, V domains shown)
VH: B2 VH
VL: B2 VL with A27D, S31A
notes: IgG in cell culture supernatant; also called S31A (light chain)
B29: hu15G11.v5 IgG Ala variant G26A (HVR-H1) (antibody, name in Kabat numbering, V domains shown)
VH: B2 VH with G26A
VL: B2 VL with A27D
notes: as for B2
B30: hu15G11.v5 IgG Ala variant N58A (HVR-H2) (antibody, name in Kabat numbering, V domains shown)
VH: B2 VH with N59A
VL: B2 VL with A27D
notes: as for B4
B31: hu15G11.v5 IgG Ala variant I60A (HVR-H2) (antibody, name in Kabat numbering, V domains shown)
VH: B2 VH with I61A
VL: B2 VL with A27D
notes: as for B4
B32: hu15G11.v5 IgG Ala variant F29A (HVR-H1) (antibody, name in Kabat numbering, V domains shown)
VH: B2 VH with F29A
VL: B2 VL with A27D
notes: as for B2

The term EC50 denotes the midpoint of the concentration-response curve. High values mean lower potency in that assay, low ones higher potency in that assay.

The target of one assay is BACE1 in primary mouse cortical neurons (mouse, UniProt P56818 46-501). Kind of assay: cell-based or functional assay.
Sequence of BACE1 in primary mouse cortical neurons (P56818 46-501): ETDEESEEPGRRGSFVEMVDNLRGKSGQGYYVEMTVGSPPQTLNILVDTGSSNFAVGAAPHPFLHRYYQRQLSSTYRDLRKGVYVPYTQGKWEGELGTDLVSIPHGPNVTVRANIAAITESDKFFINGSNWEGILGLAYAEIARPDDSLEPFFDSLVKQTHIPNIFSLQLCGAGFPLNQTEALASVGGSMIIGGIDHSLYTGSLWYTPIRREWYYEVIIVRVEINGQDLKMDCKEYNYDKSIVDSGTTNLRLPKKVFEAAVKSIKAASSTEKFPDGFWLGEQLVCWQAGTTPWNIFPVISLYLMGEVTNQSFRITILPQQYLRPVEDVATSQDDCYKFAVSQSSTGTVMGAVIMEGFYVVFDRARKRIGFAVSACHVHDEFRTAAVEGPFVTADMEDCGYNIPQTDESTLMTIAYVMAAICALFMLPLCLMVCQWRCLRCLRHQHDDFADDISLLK
Regarding B1, the “IC50, Abeta x-40 in mouse cortical neurons” value is 9.71 nM and the “maximal % inhibition of Abeta x-40” value is 60%.

The target in a further assay is T1, cyno TfR extracellular domain …. Kind of assay: ELISA, TfR-coated plate, IgG in culture supernatant.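 Note: human or cynomolgus TfR coated at 2 µg/mL, supernatant IgG titrated in 1:5 steps for 1 h, bound antibody read with HRP anti-human Fcγ and TMB.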 Background: In an ELISA, binding on a coated surface is turned into a signal by an enzyme label.
In turn, B2 came in with an EC50 of 0.8 ng/mL.

In turn, B3 registered an EC50 of 0.6 ng/mL.

In turn, B4 returned an EC50 of 0.6 ng/mL.

Molecule B5 yielded an EC50 of 5410 ng/mL. This EC50 lies about 9000-fold higher than the previous one.

Molecule B6 had an EC50 of 0.6 ng/mL.

B7 returned an EC50 of 0.5 ng/mL. This EC50 and that of the molecule before are within 1.5-fold of each other.

B8 returned an EC50 of 0.1 ng/mL.

In the case of B9, the EC50 was determined as 0.6 ng/mL.

Consider B10, for which the EC50 was found to be 410 ng/mL.

The molecule B11 showed an EC50 of 1.1 ng/mL.

Molecule B12 had a concentration for a half-maximal effect (EC50) of 0.6 ng/mL. Compared with the last molecule, the EC50 is about 1.8-fold lower.

In turn, B13 gave an EC50 of 0.6 ng/mL.

In turn, B14 showed an EC50 of 0.9 ng/mL.

B15 gave an EC50 of 0.8 ng/mL.

B16 returned an EC50 of 8.1 ng/mL.

As for B17, the EC50 was found to be 0.5 ng/mL.

For B18, the EC50 is 0.7 ng/mL.

B19: the concentration giving a half-maximal response (EC50) was found to be 0.1 ng/mL.

Molecule B20 came in with an EC50 of 0.9 ng/mL.

B21 yielded an EC50 of 0.4 ng/mL.

B22 returned an EC50 of 0.5 ng/mL. This EC50 and that of the molecule before are within 1.5-fold of each other.

The molecule B23 gave an EC50 of 1.1 ng/mL.

Regarding B24, the response was half-maximal at 0.9 ng/mL (EC50).

B25 showed an EC50 of 0.7 ng/mL.

The molecule B26 yielded an EC50 of 4 ng/mL.

B27 displayed an EC50 of 0.8 ng/mL. Against the preceding molecule, the EC50 is about 5-fold lower.

Turning to B28, the response was half-maximal at 0.7 ng/mL (EC50).

B29 showed an EC50 of 6.1 ng/mL.

The molecule B30 gave an EC50 of 80.4 ng/mL.

B31 yielded an EC50 of 0.7 ng/mL.

In the next assay the target is T2, human TfR extracellular domain with N-terminal His tag (human, UniProt P02786 89-760).
T2 construct: Biotinylated in some assays; also called huTfR; HuTfR
The assay is described as above.
Molecule B2 yielded an EC50 of 0.2 ng/mL.

Take B3: the EC50 was determined as 0.3 ng/mL. The EC50 values of the last two molecules are within 1.5-fold of each other.

Take B4: the EC50 worked out at 0.3 ng/mL.

In the case of B5, the EC50 is 55.1 ng/mL.

B6 had an EC50 of 0.2 ng/mL.

In turn, B7 registered an EC50 of 0.3 ng/mL.

As for B32, the EC50 came to 1.5 ng/mL.

Take B8: the EC50 is 0.05 ng/mL.

As for B9, the midpoint of the response, the EC50, lay at 0.4 ng/mL.

Regarding B11, a half-maximal effect (EC50) was put at 0.3 ng/mL.

Turning to B12, the midpoint of the response, the EC50, lay at 0.2 ng/mL.

Regarding B13, the EC50 came out at 0.2 ng/mL.

Molecule B14 returned a concentration giving a half-maximal response (EC50) of 0.4 ng/mL.

B15 yielded an EC50 of 0.2 ng/mL.

The molecule B16 came in with an EC50 of 3.9 ng/mL.

On to B17, for which the response was half-maximal at 0.4 ng/mL (EC50).

With B18, the EC50 is 0.2 ng/mL.

Regarding B19, the midpoint of the response, the EC50, lay at 0.05 ng/mL. This EC50 lies about 4-fold lower than the previous one.

As to B20, the concentration for a half-maximal effect (EC50) worked out at 0.3 ng/mL.

Molecule B21 showed an EC50 of 0.1 ng/mL.

Molecule B22 registered an EC50 of 0.2 ng/mL.

Molecule B23 yielded an EC50 of 0.4 ng/mL.

In the case of B24, the EC50 was 0.3 ng/mL.

B25 had an EC50 of 0.3 ng/mL.

Regarding B26, the concentration for a half-maximal effect (EC50) came to 1.6 ng/mL. Against the preceding molecule, the EC50 is about 5.3-fold higher.

B27 gave an EC50 of 0.4 ng/mL.

For the molecule B28, it took 0.3 ng/mL to reach a half-maximal effect (EC50).

For B29, the EC50 worked out at 1.1 ng/mL.

As for B30, the EC50 is 6.3 ng/mL.

As for B31, the EC50 was determined as 0.3 ng/mL.

In the next assay the target is BACE1 (HTRF long substrate and FRET short substrate assays of Example 9D). Kind of assay: cell-based or functional assay.
Take B1: the “EC50, FRET short substrate” value was 1.41 nM and the “EC50, HTRF long substrate” value amounted to 17.7 nM.
